Biological target: full-length H. sapiens ROCK2 (H. sapiens), O75116
Experiment: rotary shadowing electron microscopy
Conditions: remark: other sources report otherwise

stoichiometry N: 2
B1: full-length H. sapiens ROCK2, O75116 1-1388 (enzyme)
chain: MSRPPPTGKMPGAPETAPGDGAGASRQRKLEALIRDPRSPINVESLLDGLNSLVLDLDFPALRKNKNIDNFLNRYEKIVKKIRGLQMKAEDYDVVKVIGRGAFGEVQLVRHKASQKVYAMKLLSKFEMIKRSDSAFFWEERDIMAFANSPWVVQLFYAFQDDRYLYMVMEYMPGGDLVNLMSNYDVPEKWAKFYTAEVVLALDAIHSMGLIHRDVKPDNMLLDKHGHLKLADFGTCMKMDETGMVHCDTAVGTPDYISPEVLKSQGGDGFYGRECDWWSVGVFLYEMLVGDTPFYADSLVGTYSKIMDHKNSLCFPEDAEISKHAKNLICAFLTDREVRLGRNGVEEIRQHPFFKNDQWHWDNIRETAAPVVPELSSDIDSSNFDDIEDDKGDVETFPIPKAFVGNQLPFIGFTYYRENLLLSDSPSCRETDSIQSRKNEESQEIQKKLYTLEEHLSNEMQAKEELEQKCKSVNTRLEKTAKELEEEITLRKSVESALRQLEREKALLQHKNAEYQRKADHEADKKRNLENDVNSLKDQLEDLKKRNQNSQISTEKVNQLQRQLDETNALLRTESDTAARLRKTQAESSKQIQQLESNNRDLQDKNCLLETAKLKLEKEFINLQSALESERRDRTHGSEIINDLQGRICGLEEDLKNGKILLAKVELEKRQLQERFTDLEKEKSNMEIDMTYQLKVIQQSLEQEEAEHKATKARLADKNKIYESIEEAKSEAMKEMEKKLLEERTLKQKVENLLLEAEKRCSLLDCDLKQSQQKINELLKQKDVLNEDVRNLTLKIEQETQKRCLTQNDLKMQTQQVNTLKMSEKQLKQENNHLMEMKMNLEKQNAELRKERQDADGQMKELQDQLEAEQYFSTLYKTQVRELKEECEEKTKLGKELQQKKQELQDERDSLAAQLEITLTKADSEQLARSIAEEQYSDLEKEKIMKELEIKEMMARHKQELTEKDATIASLEETNRTLTSDVANLANEKEELNNKLKDVQEQLSRLKDEEISAAAIKAQFEKQLLTERTLKTQAVNKLAEIMNRKEPVKRGNDTDVRRKEKENRKLHMELKSEREKLTQQMIKYQKELNEMQAQIAEESQIRIELQMTLDSKDSDIEQLRSQLQALHIGLDSSSIGSGPGDAEADDGFPESRLEGWLSLPVRNNTKKFGWVKKYVIVSSKKILFYDSEQDKEQSNPYMVLDIDKLFHVRPVTQTDVYRADAKEIPRIFQILYANEGESKKEQEFPVEPVGEKSNYICHKGHEFIPTLYHFPTNCEACMKPLWHMFKPPPALECRRCHIKCHKDHMDKKEEIIAPCKVYYDISTAKNLLLLANSTEEQQKWVSRLVKKIPKKPPAPDPFARSSPRTSMKIQQNQSIRRPSRQLAPNKPS

Source: publication doi:10.1101/2022.03.11.483953
